Experiment: soluble on expression in E. coli; label from the status in PepcDB or PDB records

Sequence	soluble on expression in E. coli
MAHHHHHHMGENRRPSRWSSERYTNLFVPNYIPPELMLYDEGQFLRAFLLRVLSIDLNRLIETKRCGDYFINIPLVPEYNSEGQRTNTPDELVAEKRLKVMDELTNLLRQHSELELNAKTQKEVVRKRYFTQEEMDNGAYGAILGARGMVHQELERLTKCKIVLAGRGITNALKDTSANAARVALEDPHARITAPNEQALQHAMERIEWILSDDPEALEFRENNRKRMAQIEGRYDPRTWVSLAERNAKNPRRMGEKREREEEAKEELDADLQEFLDEL	soluble
MQDLKVISKHYAKALKNHTKSDLALLEEIVVGLKNATEAIRQHKLNQVLAHVSLKVKKEVVFEILEKITSIKACSVLKPVMEVVLKNNRLDMLELITEELSFDSKRTLEATLLVPEKLENNELEAVQQKLQARFNAPVEITQDTWSKKGVSLSVSSLDLEIGFSKEDILKKIEKQVIQSI	not soluble
MAYITYQQYLDLYGTCPISEEEFPVYAGLASDMIDSITRYRIVEGGGISALPSILQTLVQKAAAAQVLYFTQIGLETVLTGQAGQSFTVGKVSVSGGALSSTTTKPGALMVSPFALSLLEQTPLMERGVHVCSDRFLNPFWGILEHHHHHH	soluble
MGSDKIHHHHHHMIRMIRKFKVKGLRSPSLLIDMILNDTEEGILVVETDGEEQIKDIEKLLKKYNLKYEVDGNVVKIYVGEIKADKTINVVGATCPGPIMMVSDMLSKMKNGEILEIICGKNSLTDLTEGLKGMGNEIIKVEDKGDGTYRILVKKGEKKEEKAAVTKIDELFIINTTGTGNAEKAYATFMMADVALKMNLKPTIFLMMDGASLALKGECDRVKHPAFPKLGDLVRDILSKGVKIYVCELSAEFRGINEKNLEEGFEIAGAPTFLNYLSKPNVRPVWL	not soluble
MSARMDNDTAALLERIRSDWARLNHGQGPDSDGLTPSAGPMLTLLLLERLHAALGREIERTYAASGLNAAGWDLLLTLYRSAPPEGLRPTELSALAAISGPSTSNRIVRLLEKGLIERREDERDRRSASIRLTPQGRALVTHLLPAHLATTQRVLAPLSAQEQRTLEELAGRMLAGLEQGV	soluble
MSYYHHHHHHLESTSLYKKAGLENLYFQGVRQYKIHTNLDGTDDKVWDVTNGKVRFYQPSNLGLQSTNNIWQSNGIGVMGTRSITQPQIEFKLETFGESLEENYQLMKDFVNDILSKKFVTLEYQTEIFQVYADLALADVTKTEGYGKNGTFSEKITFDIITKWYTYENLTFDKIQNGKVIAGMSKIYGGTAPGNYKYIKGTSYTYYGESDIDRLSRWDIKEEIFSFMGILYPKLPKTPAGVRFLDDIGNEYTAIVFKTEQVQDYILINTDVNDETYQGWKGTTALNLFPVMDFERYRTRIIEKGQMELINLSKAEFKIKRKADFV	soluble
MGSDKIHHHHHHMKIKAIITGATGMVGEGVMHECLLNPDVEEVLIINRKPSGFTHAKLKEIIHTDFFNLAPVEQQLAGYNACYFCLGVSSIGMNEADYTKMTYTLTMHVAETLSRLNKDMTFCYVSGASTDSTEKGKSMWARVKGKTENDLTRLPFKDVYNFRPGYMQPTPGLKNTQKYYTYMSWMYPFLKLVFKNYVSTLKDVGLAMIRVTLFGHNKQVLEVPDIKALAKKTQFV	not soluble
MDIQLVADGLQFPEGPIAMADGSVILTEIQGQRLTRVWPDGRKETVAETGGGPNGAAIGPDGAIYVTNNGGSFQFFEANGLNIPGPTPPTHTGGAIQRVDLKTGAITTLYTECDGKPLVGPNDLVFDKQGGFWFTDHGCSTPDGRKYGALYYALPDGSKITRWRDHFVSPNGVGLSPDEKTVYMADTMLGRLWSFDVASPGVLADAVPLLPGNVVCNLPGYQLLDSLAVEADGKVCVATIINGGITAFAPDGSTEHYAFPDVIVTNICFGGADMRDAWITASGTGKLYKARWPRPGLKLNFNGLEHHHHHH	soluble
MGSDKIHHHHHHMLLIDTHAHVLSPDRTTFPRDYGLDMAWARGDLSAQQLVAAMDESSISKTLLIQAYSAYRYDNSYLESVIGEFPDRFAGVCMVDPLARDVSDRLTSLIVDRKFAGTRIVIVQPEPRLDDPAMAPFYETCAELRTPLCVLTIPPKLKELEVPLSQWPSLQVVVEHLGLIHTASGDSVSKERPLLDLARFPNCILKFSTISLRVAAAFEGGAQGQFERLIDAFGAQRLMWGSDYPSTPEGGIPGLVNEMHQALDFLPHHDLALLSGEAACRIWSTLRPVSSRGLA	not soluble
MTFTASSSSCAITESPVVVALDYHERDKALAFVDKIDPRDCRLKVGKEMFTLFGPQLVRDLQQRGFDVFLDLKFHDIPNTTARAVAAAADLGVWMVNVHASGGARMMAAARDALAPFSKDAPLLIAVTVLTSMETSDLHDLGVTLSPAEHAERLARLTQQCGLDGVVCSAQEAVRFKQAFGAAFKLVTPGIRPAGSEAGDQRRIMTPEQALSAGVDYMVIGRPVTQSVDPAQTLKDINASLKREA	not soluble
MAHHHHHHMAEALHERHFFDKFIKMNIPDDYLDASRFRVIPDNQEVYVHKFQDKCLIIEILCFQNMNIQEKGNFYFYDLAKENDSIENVIITSNHSVPHSQGNYILLVGRQKIKKNNSSTHEPILLYICIFPLEEHNADIIITWNVPKEDMDIQPELETFNEMMQSFRILDYTLFV	soluble
NTRLLEEIEERRRSERFFHATIDSLTAPVAILNGEGDIVTVNRAWRKFADENGGLHPNHFIGYNYLGLCDNVKGDDAVTASAVARGIRELIAGRINEFHVDYPCHSPDEQRWFQVRVTRLENGSRGRVAVVHENIS	not soluble
GAKQVDVHDPVMTREGDTWYLFSTGPGITIYSSKDRVNWRYSDRAFATEPTWAKRVSPSFDGHLWAPDIYQHKGLFYLYYSVSAFGKNTSAIGVTVNKTLNPASPDYRWEDKGIVIESVPQRDLWNAIAPAIIADDHGQVWMSFGSFWGGLKLFKLNDDLTRPAEPQEWHSIAKLERSVLMDDSQAGSAQIEAPFILRKGDYYYLFASWGLCCRKGDSTYHLVVGRSKQVTGPYLDKTGRDMNQGGGSLLIKGNKRWVGLGHNSAYTWDGKDYLVLHAYEAADNYLQKLKILNLHWDGEGWPQVDEKELDSYISQRLK	soluble
MGLWFEEGAEERQVLGPFREFLKAEVAPGAAERDRTGAFPWDLVRKLAEFGVFGALVPEAYGGAGLSTRLFARMVEAIAYYDGALALTVASHNSLATGHILLAGSEAQKEAFLPKLASGEALGAWGLTEPGSGSDAAALKTKAEKVEGGWRLNGTKQFITQGSVAGVYVVMARTDPPPSPERKHQGISAFAFFRPERGLKVGRKEEKLGLTASDTAQLILEDLFVPEEALLGERGKGFYDVLRVLDGGRIGIAAMAVGLGQAALDYALAYAKGREAFGRPIAEFEGVSFKLAEAATELEAARLLYLKAAELKDAGRPFTLEAAQAKLFASEAAVKACDEAIQILGGYGYVKDYPVERYWRDARLTRIGEGTSEILKLVIARRLLEAV	soluble
FSQHVSANLNLPSPSLNTPLNWLLTSVDEVMFNQQLHGSAVHINCAFPEPLYSDGEKSAYQSYLSSVEAWRKGGQTYTQRFVSPSFRDIPFCADRKGVVVIGSLSAEHAQEAKAFAQQMGWPVLADPQSGVSSDWSHYDLWLQQPKLASQLDECDLVLQFGSRIISKRLNQWINKQVSQSQQGRDVQYWFISPSLSRDNQTHLPQLHWVASPKSWVERVDVKSSSTQGWADGLLTDIAHVRAHISDEFLFSSASTLNEIALAADIEERTQSVDVFLGNSLFVRLVDMFGRLNTEVFTNRGASGIDGLFATASGVQRSRGKPLLMYIGDTSALYDLNSLALFSRNDLPSVLVVTNNDGGAIFDMLPVPQEHRTAYYQMPHGYQFEHAAKQFGLKYEKPTTLQMYQAMVADHLSSGQGTMLVEVQTPPSQAAELIKAFNKSLHASL	not soluble
MSLSVRVDYALVGRELEAREAVCLVFDGSDGRLSSISSSSSCPESSPKFTIAVPPSVNAHIHSSDVQWPEVGNDLSLEELVAPPRGLKHLLLQQAGERACAEAAVGVYRALGRMVVRAAADFREPAAGGCLPVREILATLGGLYTRVVLMGRPGDPYGLEGCDGIGLNSPLDVDPKRMRLLKKSGMRIHAHVAETREMRLEGDLEAALDIGVDTVIHGTHLSREDLELLREHGVTLVLSPRSNMWHGVGLPPVAEAYRVGVKIAFGTDNAAWNMLDPWDEARQAMLVARLQGVKDPGLPHYILKGLLSWGYEALGMEPPALAEGADMCSVALMRLEGYEAGLFRRSFSRYYTLLKIARGDLLQPVCTISGGLLEPAEGHHHHHH	soluble
MGSDKIHHHHHHMERLPTTPHDAVFRQMLMQKEVARDFLAIHMPEDFLAICDLDSLKLESGSFVEDNLRSRYSDILYSLHTQHGPGYVYALIEHQSKSDRLMAFRLMRYAIAAMQRHLDAGHDTLPLVVPILFYHGPESPWPYSLNWHNMFVKPDMAKALYSRDFALVDLTTMPDNQLLQHRRIAMLELLQKHIRQRDLSELLDPLITLLTQDHLTDAQLSVLINYMLKAGNAAEPGALIRQLAQGAPQYKEQLMTIAEWLEEKGRTEGLQKGLQKGLEQGLAQGREAEARAIARKMLANGLEPGLIASVTGITPEELSTLSH	not soluble
MSLSDLHTKYMGLTLRSPLVASAGPIQQKVDGVRALADAGVGAIVMYSLFEEQVRHEEARQAEIELEYMDSFAESLSFFPTVASNEGGITERYLAHLEASANAVDIPVIASLNGATNGGWVDTAKRMENAGAAGIECNIYMVPGDLEQSAEEVEDRHVEIVQAVKDAVSVPVAVKLSPFFSALGNMATRLDAAGADALVMFNRFLQPDINVETMQVEPGVWLSSPADARLPLTWIAVLSGRIGASLAASSGVESANDVVKYLLAGADVVMTTSALVRHGAGYATELQKGLESYLQRKEVDLDTLRGTLAVPNDASTAEYERNGYVAALEKAKTTYGEGHHHHHH	not soluble
MDFAFEKVARDWFVRWSKGRSEKYAGQVMRNFERWVFPAIGNLDIRQVRTADVVGCLRVMEARGIVDTLRKTKNSLKMVFAFAVGSGMMEINPVAQIGSGVFERLEHHHHHH	not soluble
MKLSGGVEWALHCCVVLSQAESPVPTARLAELHGVSKTYLAKHLQSLARAGLVHPTEGRDGGYVLTRAPEAITVLDVVQAVDGTEPAFRCTEIRRQGVLAAPPEQCRSACGIAKVMAGAEQAWRASLSSVTIADLGATIDLTVLKHILATSTT	not soluble
MISVTDLRPGTKVKMDGGLWECVEYQHQKLGRGGAKVVAKFKNLETGATVERTFNSGEKLEDIYVETRELQYLYPEGEEMVFMDLETYEQFAVPRSRVVGAEFFKEGMTALGDMYEGQPIKVTPPTVVELKVVDTPPGVRGDTVSGGSKPATLETGAVVQVPLFVEPGEVIKVDTRTGEYVGRA	soluble
MKRTVTVKLQPSKAQEETLKELAIISSKAWNKVNYLRRQEFFEGKPVDFLKTEKIVYEEFKSEIGSATVQQICRKNADAWRSFFSLIRSKRNGELPKWFKPKPPEYVKEGGLIILRNDQYKIEGNKLILKGLGKFKRLEVQFKGRIHLKGKQGRLEITFDPIRRKWYAHISYTVKEKLYGGEWVEVLRQPLGNLSAGIDLGVNNLMAVYVENGESFLVNGRPLKSIDFYWRKRIAEYQSKLNKSGVKKGRKLSKMHQKAKLQAKHYINTAIRRTVEKLYHLGVSRIVVGYPKGISRNSDKGKKQNYLLSHVWRFNYVIKRLREVAEEYGIQVLIVDEAFTSKLCPVCGKPHKGQGLFEDYLSVPRRGLPLMPTWLELSTFLEHHHHHH	soluble
GAMAPHFKEELRNLNVRYQSNATLVCKVTGHPKPIVKWYRQGKEIIADGLKYRIQEFKGGYHQLIIASVTDDDATVYQVRATNQGGSVSGTASLEVEVPAKIHLPKTLEGMGAVHALRGEVVSIKIPFSGKPDPVITWQKGQDLIDNNGHYQVIVTRSFTSLVFPNGVERKDAGFYVVCAKNRFGIDQKTVELDVADVPDPPRGVKVSDVSRDSVNLTWTEPASDGGSKITNYIVEKCATTAERWLRVGQARETRYTVINLFGKTSYQFRVIAENKFGLSKPSEPSEPTITKEDKTRAMNYDEEV	soluble
